According to publication PMC3220508:

Biological target: HSPC038-EYFP fusion protein (human) (UniProt Q9Y5V0)
Assay: FRET or BRET

Chain of UniProt Q9Y5V0 (Q9Y5V0 whole entry, the tested form may be a part): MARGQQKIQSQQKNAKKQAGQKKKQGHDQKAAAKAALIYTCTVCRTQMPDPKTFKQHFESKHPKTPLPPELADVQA

- normalized netFRET, 5 min hypotonic (isotonic = 1.00): 1.31
- normalized netFRET, 15 min hypotonic (isotonic = 1.00): 1.44
- normalized netFRET, 30 min hypotonic (isotonic = 1.00): 1.49
Substance: ICln-ECFP fusion protein (from UniProt P54105 1-237) (natural protein)
